Laboratory results from patent publication US20250057968A1, “ANTI-DLL3 ANTIBODY AND PHARMACEUTICAL USE THEREOF, AND ANTIBODY-DRUG CONJUGATE CONTAINING ANTI-DLL3 ANTIBODY” (Jiangsu Hengrui Pharmaceuticals Co., Ltd., priority 2021, published 2025).

T1: mouse DLL3 (KACTUS, DLL-MM103) (mouse, UniProt O88516 33-490, limits assumed)
T1 construct: bought antigen of the Biacore assay; construct not described
T1 sequence (looked up): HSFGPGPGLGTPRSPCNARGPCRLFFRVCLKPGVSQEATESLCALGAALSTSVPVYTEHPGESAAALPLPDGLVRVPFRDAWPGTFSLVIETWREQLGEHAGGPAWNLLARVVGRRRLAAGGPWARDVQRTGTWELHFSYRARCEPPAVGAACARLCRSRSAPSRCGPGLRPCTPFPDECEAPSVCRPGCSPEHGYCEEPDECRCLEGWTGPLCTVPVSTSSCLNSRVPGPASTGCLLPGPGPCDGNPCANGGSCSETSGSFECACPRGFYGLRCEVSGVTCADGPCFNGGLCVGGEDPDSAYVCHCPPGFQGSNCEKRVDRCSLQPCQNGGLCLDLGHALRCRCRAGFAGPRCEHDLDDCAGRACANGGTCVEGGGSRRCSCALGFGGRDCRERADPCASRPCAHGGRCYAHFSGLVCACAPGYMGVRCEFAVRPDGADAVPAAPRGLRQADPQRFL

T2: Rat DLL3 full-length protein on CHO-s cells (rat, UniProt O88671 33-589)
T2 construct: also called RatDLL3/CHO-s; ratDLL3/CHO-s
T2 sequence: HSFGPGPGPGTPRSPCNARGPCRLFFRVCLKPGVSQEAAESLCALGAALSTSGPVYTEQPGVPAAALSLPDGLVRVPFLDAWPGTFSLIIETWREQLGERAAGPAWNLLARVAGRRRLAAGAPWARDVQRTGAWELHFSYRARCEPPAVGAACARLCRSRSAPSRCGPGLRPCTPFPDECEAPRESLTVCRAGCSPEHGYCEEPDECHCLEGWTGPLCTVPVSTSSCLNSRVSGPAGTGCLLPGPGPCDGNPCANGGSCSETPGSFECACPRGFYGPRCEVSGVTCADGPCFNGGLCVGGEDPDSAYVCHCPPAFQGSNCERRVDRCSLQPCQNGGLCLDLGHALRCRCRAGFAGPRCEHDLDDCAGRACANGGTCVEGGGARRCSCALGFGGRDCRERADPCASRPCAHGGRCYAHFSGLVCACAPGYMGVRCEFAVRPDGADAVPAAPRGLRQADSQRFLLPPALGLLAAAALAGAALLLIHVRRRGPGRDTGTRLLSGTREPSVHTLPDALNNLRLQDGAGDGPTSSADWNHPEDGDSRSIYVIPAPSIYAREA

T3: Human DLL3 full-length protein on cells (human, UniProt Q9NYJ7 27-618)
T3 construct: H1184 and DMS53 express DLL3 themselves; The cell line is named under assay; also called H1184 cells; DLL3/H82
T3 sequence: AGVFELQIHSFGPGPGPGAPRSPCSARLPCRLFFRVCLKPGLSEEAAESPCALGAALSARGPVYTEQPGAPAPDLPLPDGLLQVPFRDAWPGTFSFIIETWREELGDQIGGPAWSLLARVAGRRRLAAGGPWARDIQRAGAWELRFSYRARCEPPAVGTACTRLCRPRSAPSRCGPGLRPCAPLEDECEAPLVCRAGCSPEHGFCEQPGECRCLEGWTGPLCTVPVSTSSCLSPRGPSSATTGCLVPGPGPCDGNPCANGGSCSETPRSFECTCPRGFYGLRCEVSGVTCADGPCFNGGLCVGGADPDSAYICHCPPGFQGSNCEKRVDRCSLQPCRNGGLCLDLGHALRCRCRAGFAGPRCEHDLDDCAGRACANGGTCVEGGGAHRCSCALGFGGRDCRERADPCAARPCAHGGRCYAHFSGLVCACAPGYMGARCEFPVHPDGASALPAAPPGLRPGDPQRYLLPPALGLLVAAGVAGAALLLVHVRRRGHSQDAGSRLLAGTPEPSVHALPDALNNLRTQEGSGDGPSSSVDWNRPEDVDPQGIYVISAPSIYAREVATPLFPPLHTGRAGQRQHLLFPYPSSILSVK

B1: Hu100 (antibody, human IgG1, kappa, V domains shown)
VH: EVQLVESGGGLVKPGGSLRLSCAASGFTFSDSGMHWIRQAPGKGLEWVSYISSGSSTIHYADTVKGRFTISRDNAKNSLYLQMNSLRAEDTAVYYCASPLYYYGRSYNAVAYWGQGTTVTVSS
VL: DIQMTQSPSSLSASVGDRVTITCHASQNINVWLSWYQQKPGKVPKLLIYKASDLHTGVPSRFSGSGSGTDFTLTISSLQPEDVATYYCQQGQSYPLTFGGGTKVEIKR
notes: also called hAb100L1H1
B2: Hu6 (antibody, human IgG1, kappa, V domains shown)
VH: EVQLVQSGSELKKPGASVKVSCKASGYTFTDYYMNWVRQAPGQGLEWMGIINPYSGVTIYNHKFKGRFALSVDKSSNTAYLQISSLKAEDTAVYYCARQDSLLDYAMDYWGQGTTVTVSS
VL: DIQMTQSPSSLSASVGDRVTITCHASQGISGNMGWLQQKPGKAPKGLIYHGANLEDGVPSRFSGSGSGADYTLTISSLQPEDFADYYCVQYAQFPYTFGGGTKVEIKR
notes: also called hAb6L4H12

How the values were obtained:
[1] = biological target: T1, mouse DLL3 (KACTUS, DLL-MM103); test: SPR (Biacore 8K), antibody captured on Protein A chip
Text: (§1) Test antibodies were affinity-captured with a Protein A biosensor chip (Cat. #29127556, Cytiva) for 18 seconds, and then the antigens human DLL3 (ACRO, DLL3-H52H4), cynomolgus monkey DLL3 (KACTUS, DLL-RM103), and mouse DLL3 (KACTUS, DLL-MM103) were allowed to flow over the surface of the chip for 180 seconds, followed by 600 seconds of dissociation. Reaction signals were detected in real time using a Biacore 8K (Cytiva) instrument to obtain association and dissociation curves. After the dissociation in each experimental cycle, the biosensor chip was washed and regenerated with a 10 mM glycine-hydrochloric acid solution (pH 1.5) (Cat. #BR-1003-54, Cytiva). A 1:1 model was fit to the data. The results are shown in Table 12-1, Table 12-2, and Table 12-3.

[2] = biological target: T2, Rat DLL3 full-length protein on CHO-s …; test: FACS on RatDLL3/CHO-s cells
Experimental: (§2) Cells of the DLL3-expressing small cell lung cancer cell lines H1184 (ATCC, Cat. No. CRL-5858), DLL3/H82, cynoDLL3/CHO-s, and RatDLL3/CHO-s were suspended at 1×10^6/mL in FACS buffer (1% BSA+pH 7.4 PBS), and the cell suspensions were added to a 96-well round-bottom plate (Corning, 3795) at 100 μL/well. The plate was centrifuged at 300 g for 5 min, and the supernatant was removed. Different concentrations of test antibodies were added at 100 μL/well. The plate was incubated in the dark in a refrigerator at 4° C. for 1 h. After 3 washes by centrifugation at 300 g, working concentrations of APC anti-human IgG Fc (BioLegend, 410712) or PE F(ab′)2-goat anti-human IgG (invitrogen, H10104) were added. The plate was incubated in the dark in a refrigerator at 4° C. for 40 min. After 3 washes by centrifugation at 300 g, the geometric mean fluorescence intensity was measured on an Invitrogen flow cytometer, and the EC50 values of the antibodies in binding to DLL3-expressing cells were calculated.

[3] = biological target: T3, Human DLL3 full-length protein on cells; test: FACS on DLL3/H82 cells
Experimental: as §2

[4] = biological target: T1, mouse DLL3 (KACTUS, DLL-MM103); test: SPR (Biacore 8K), antibody captured on Protein A chip, 1:1 fit
Text: as §1

Binder	binding result [1]	binding result [2]	EC50 [3]	Emax [3]	Kd [4]	EC50 [2]
B1	no binding	no binding	0.24 nM	14300	–	–
B2	–	–	–	–	6.52 nM	1.42 nM
